Test results published in the supplement of paper PMC12042874.
± gives the uncertainty stated by the source.

experiment: amyloid nucleation score (Sup35N fusion, yeast selection) (log enrichment); library NNK2; higher = more nucleation; inactive = no reads after selection
Method in brief: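 The nucleation score is a DiMSum log enrichment of output over input reads, centred on the mode score of non-aggregating sequences. Sequences under 100 input reads were excluded, and reads came from Illumina sequencing of plasmid inserts. Psi-negative yeast expressing Sup35N fused to peptides of 20 random codons were induced with 100 μM copper sulfate for 24 hours and grown 7 days at 30°C on medium lacking adenine and uracil. Random libraries had three technical output replicates.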

In the case of DQDSNSFAQSVVSHNVLVNI, the amyloid nucleation score is reported as “inactive”.
For DWGGVLCATVG, the amyloid nucleation score was “inactive”.
For EAFNTSCLVFLRNDWYWSGF, the amyloid nucleation score was “inactive”.

Going from DQEALGRLWYLFAHGSLVTR to DQGVMLFRG, the amyloid nucleation score falls from 0.847 ± 0.44 to -0.134 ± 0.32.

Going from DQKAIVMVRNLDAWVGCAHY to DREVSRVGLD, the amyloid nucleation score rises from 0.266 ± 0.46 to 1.29 ± 0.34.

Compared with DREWVYYCGYWECTMFRCIY, DRFMVMFMLKVGVIVWNYGD is lower in amyloid nucleation score: 1.12 ± 0.16 for the first, 0.262 ± 0.54 for the second.

DRGECYDLIGLCHSPVCCYP and DRGRSNWFRMMWIDGEHYSE are within error of each other in amyloid nucleation score: -0.038 ± 0.42 for the first, -0.492 ± 0.61 for the second.

Compared with DRLLHDTE, DRNMSVNI is higher in amyloid nucleation score: -0.866 ± 0.76 for the first, 1.22 ± 0.44 for the second.

Going from DRPGDRSGTAWAWFRCETGG to DRSRLGVGGVDVLWFLHSSK, the amyloid nucleation score rises from 1.1 ± 0.31 to 5.328 ± 0.046.

DRTGGPIWVVGYPARGRAAL and DRVCAGLKPVRNN are within error of each other in amyloid nucleation score: 0.99 ± 0.29 for the first, 0.836 ± 0.31 for the second.

Compared with DRYWLERWSDGNCGRSARIR, DSGVEMYLFNSRFLRSLGND is higher in amyloid nucleation score: 1.22 ± 0.4 for the first, 3.65 ± 0.052 for the second.

First: DSIARYCVTYLWCNLHLLVK
Second: DSLTCCIS
The amyloid nucleation score of the first is higher: 4.01 ± 0.13 for the first, 3.37 ± 0.093 for the second.

DSRCIDTVFNWYEHTSSRYR and DSSSVGGVLPVCVNSKSMED are within error of each other in amyloid nucleation score: -0.287 ± 0.55 for the first, -0.236 ± 0.41 for the second.

Going from DTVALCNWLMRLESFSFAGQ to DTVISCLGVG, the amyloid nucleation score falls from 1.83 ± 0.19 to -0.087 ± 1.

DVDSCW and DVIPRVMIKALT are within error of each other in amyloid nucleation score: 0.554 ± 0.43 for the first, 0.063 ± 0.56 for the second.

Compared with DVKWPYRLDFVKLYYIYKEG, DVYVVIPNYGPQEWVSNYS is higher in amyloid nucleation score: -1.88 ± 0.53 for the first, -0.341 ± 0.5 for the second.

DWFSTLHLIGSAS and DWKNYRMMHVEVWTACRILG are within error of each other in amyloid nucleation score: -0.041 ± 0.63 for the first, 0.734 ± 0.81 for the second.

Compared with DWLYMMKIARSPVVCRSRPS, DWQYRLKSVLVFRWQ is higher in amyloid nucleation score: 0.38 ± 0.35 for the first, 3.5 ± 0.15 for the second.

DYAFRVYSGIPLKLSNS and DYANELVA are within error of each other in amyloid nucleation score: -0.373 ± 0.65 for the first, 0.099 ± 0.25 for the second.

DYDEIMRLMLWSSLLLFR and DYIIVRMCADILSGSVHGAM are within error of each other in amyloid nucleation score: 0.47 ± 0.34 for the first, -0.068 ± 0.45 for the second.

DYTSCEDVLSVVRPWNYNVE and DYVMYPGLVAMLSVSTPSQE are within error of each other in amyloid nucleation score: 0.714 ± 0.47 for the first, 0.477 ± 0.49 for the second.

Compared with EAAYLVFSCVMCTFYFEFCF, EALMSSTIYYVPCSRHLIMF is lower in amyloid nucleation score: 2.55 ± 0.089 for the first, -0.576 ± 0.63 for the second.

First: EAWRNLYFGLSRRHRRYGSL
Second: ECERERYLLGTRT
The amyloid nucleation score of the first is higher: 1.49 ± 0.18 for the first, 0.322 ± 0.25 for the second.

First: ECGPWKFDRIERDMNAVVER
Second: ECGVLFV
The amyloid nucleation score of the first is higher: 2.46 ± 0.17 for the first, 0.827 ± 0.6 for the second.

Compared with ECRMRLVFHRSIGYTTQCFV, ECYDFYTWESYGLGCTSCEK is lower in amyloid nucleation score: 3.37 ± 0.064 for the first, -0.01 ± 0.43 for the second.

Compared with EDCVMISTCNFLFTINVLEA, EDIIIVQFVV is lower in amyloid nucleation score: 6.38 ± 0.065 for the first, 0.424 ± 0.24 for the second.

Compared with EDKNLVWLLCQGEM, EDTMFHNFQWSKAYLCYYWF is lower in amyloid nucleation score: 4.43 ± 0.058 for the first, -0.294 ± 1.1 for the second.

EDVYKRTQRDWDCLILYQRY and EEKDQRLISDSWGMF are within error of each other in amyloid nucleation score: -0.765 ± 0.76 for the first, -0.013 ± 0.56 for the second.

Compared with EENGCS, EESFYTTPLSVFCVNLRYIV is lower in amyloid nucleation score: 1.22 ± 0.24 for the first, -0.383 ± 1.1 for the second.

Going from EFANWFVGYNQGSLGHALKQ to EFGYFYLAMKISTSRYKQNY, the amyloid nucleation score rises from 0.355 ± 0.42 to 1.41 ± 0.14.

First: EFHVRGDSDGYC
Second: EFLYKLRLSLSMGCGHEELG
The amyloid nucleation score of the first is lower: -1.41 ± 1.1 for the first, 4.72 ± 0.061 for the second.

First: EFMLSVRKVVPRIYGNNPRV
Second: EFSRDRSENIAGTPSLRLNQ
The amyloid nucleation score of the first is lower: 2.78 ± 0.084 for the first, 4.56 ± 0.049 for the second.

EFWPIITTSRRDMISNLDQG and EGGLYNCYADTPTKVW are within error of each other in amyloid nucleation score: -0.593 ± 0.43 for the first, -1.07 ± 0.74 for the second.
